One experiment addresses T1, MMP1 (Homo sapiens, UniProt P03956).
T1 sequence (P03956 100-469): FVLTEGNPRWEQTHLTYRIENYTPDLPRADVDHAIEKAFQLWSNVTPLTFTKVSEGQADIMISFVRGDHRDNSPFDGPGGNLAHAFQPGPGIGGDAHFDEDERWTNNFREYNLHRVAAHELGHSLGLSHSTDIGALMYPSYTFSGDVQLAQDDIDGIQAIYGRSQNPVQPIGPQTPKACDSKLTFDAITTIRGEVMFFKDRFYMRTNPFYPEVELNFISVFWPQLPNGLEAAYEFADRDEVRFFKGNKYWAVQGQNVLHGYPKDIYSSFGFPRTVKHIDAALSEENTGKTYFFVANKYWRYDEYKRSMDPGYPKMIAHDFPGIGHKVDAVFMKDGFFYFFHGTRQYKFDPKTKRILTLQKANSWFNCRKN
Nature of the experiment: Enzymatic digestion test, MMP1. It counts as biochemical. The note with it: 3 ug peptide, MMP1 5, 10, 50 ng, 37° C. 4 hours. The protocol: 3 ug of synthesized mdhFas-1-MMPsubstrate structure modified protein, together with MMP1 (5 ng, 10 ng and 50 ng), MMP2 (100 ng, 200 ng and 800 ng), MMP3 (10 ng, 50 ng and 100 ng), cathepsin D (5 ng, 10 ng and 50 ng), cathepsin L (100 ng, 200 ng and 800 ng), and cathepsin K (10 ng, 50 ng and 100 ng), was mixed with enzyme buffer (150 mM NaCl, 5 mM. CaCl2, 20 mM Tris-HCl pH7.5), and reacted at 37° C. for 4 hours. The resultant product was subjected to electrophoresis through 15% polyacrylamide gel, transferred to a Nitrocellulose Membrane (Schleicher & Schuell), blocked at room temperature for 1 hour with TBST solution containing 3% BSA (20 mmole/L Tris-HCl, 137 mmole//l NaCl, 0.1% Tween-20), washed TBST solution three times (each for 10 minutes), and reacted with primary antibody (anti-Histidine or anti-Bigh3) for 1 hour. The resultant product was washed with TBST solution three times (each for 10 minutes), reacted with a secondary antibody conjugated to horseradish peroxidase (HRP) for 1 hour, washed TBST solution three times (each for 10 minutes), and visualized by ECL (Amersham Biosciences, UK) so as to detect the change in the amount of mdhFas-1-MMPsubstrate-RGD structural peptide.

In experiment [1] the target is T2, MMP-1 secreted from a human Synovial membrane cell (Homo sapiens, UniProt P03956).
T2 construct: MFK24 peptide cleaved by MMP-1 secreted from a human Synovial membrane cell; endogenous in cells; host or cells: human fibroblast-like synoviocytes (human synovial membrane cell line) stimulated with 0.1 ng/ml IL-1β
T2 sequence (P03956 100-469): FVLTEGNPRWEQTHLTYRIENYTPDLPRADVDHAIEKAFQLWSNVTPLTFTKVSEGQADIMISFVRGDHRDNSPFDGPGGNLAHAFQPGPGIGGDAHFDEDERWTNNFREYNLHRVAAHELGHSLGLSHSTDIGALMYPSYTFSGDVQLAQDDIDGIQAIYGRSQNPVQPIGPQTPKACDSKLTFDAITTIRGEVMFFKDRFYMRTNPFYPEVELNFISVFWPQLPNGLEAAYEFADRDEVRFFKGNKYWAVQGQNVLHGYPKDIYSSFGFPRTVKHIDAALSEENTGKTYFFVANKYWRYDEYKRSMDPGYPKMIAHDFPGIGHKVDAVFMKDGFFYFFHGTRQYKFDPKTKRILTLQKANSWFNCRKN
Nature of the experiment: Culture analysis of enzymatic digestion in IL-1β stimulated human FLS. Type of experiment: cell-based. The note with it: 1 uM peptide, 3 and 6 hours, IL-1β 0.1 ng/ml. The protocol:
In order to determine if MFK24 is well adhered to cells and in actuality cleaved by MMP-1, human FLS (fibroblast-like synovicyte) was treated with IL-1β so as to amplify the expression of MMP-1. Then, MFK24 was added in a culture medium and cultured.
In a culture medium of DMEM+10% FBS (fetal bovine serum)+2% penicillin, streptomycin, a human Synovial membrane cell line was cultured for 2 days, added with 0.1 ng/ml IL-1β, and stimulated for 24 hours. The cell line was treated with mdhFas-1-MMPsubstrate-RGD structural peptide (1 uM), and stimulated for 3 hours and 6 hours. Then, by using an anti-βig-h3 antibody recognizing mdhfas-1, and an anti-histidine antibody recognizing C-terminal histidine-tag, the amount of peptide was determined.

The test system of experiment [2] is TNF-a, RANKL, IL-1β, CCL-2, MMP-1, MMP-3, IL-6, VCAM-1. Briefly: Semiquantitative reverse transcription PCR of inflammatory mediators in CIA mouse foot tissue. Type of experiment: in vivo. Conditions: CIA mouse articulation tissue, FIG. 21. The protocol: The distribution of inflammation in the foot tissue may be somewhat differently observed according to the regions, and its quantitative research is difficult. Thus, in the hind leg of a mouse CIA model treated with MFK24, the change in inflammatory mediators according to the onset of arthritis was measured by a semiquantitative reverse transcription PCR method using a Taqman probe, as described below.
From a mouse CIA model, a foot tissue was separated, and its skin was removed. The remaining tissue was grinded by a tissue homogenizer, and an extraction reagent (Easy-spim™, Intron) was used to extract all RNAs. They were quantified, and for 7 μg of RNA, a reverse transcriptase reaction was carried out by using AMV reverse transcriptase (Roche, 0.5 ul), oligo dT (Roche, 1 ul), and 10 mM dNTP (Takara, 2 ul) RNase inhibitor (Roche, 0.1 ul). For TNF-a, RANKL, IL-1β, CCL-2, MMP-1, MMP-3, IL-6, VCAM-1 and 18S RNA of a mouse, semiquantitative PCR was performed by using primers (Bioneer, Daejeon) and a Taqman probe (Roche, Germany) in LC480 (Roche, Germany), so as to determine the number of transcripts. Quantitative analysis of the transcripts was performed through comparison with 18S RNA transcripts. The primer pairs for the semiquantitative PCR are noted in [table8].

Another experiment deals with ICAM-1 and RANKL. Nature of the experiment: Immunoblot of ICAM-1 and RANKL in CIA mouse model. Type of experiment: in vivo.

This is an account of results in patent publication US9605038B2, “Fusion peptide comprising dhFas-1 domain and MMP substrate and use thereof for preventing and treating rheumatoid arthritis” (Kyungpook National University Industry-Academic Cooperation …, priority 2010, dated 2017).

B1: MFK23: fusion peptide having sequential links of mdhFas-1, MMP2 substrate GPLGVRG (SEQ ID NO: 5), and QERGDSLA (SEQ ID NO: 10) (protein)
chain: QAMPPEELNKLLANAKELTNILKYHIGDEILVSGGIGALVRLKSLQGDKLEVSSKNNVVSVNKEPVAETDIMEFGPLGVRGVDGQERGDSLAGLE
modifications: MFK23
For B1, the “cleavage through treatment with MMP-1” value with MMP1 is “not cleaved”.

B2: MFK24: fusion peptide having sequential links of mdhFas-1, MMP1 substrate GPQGIAG (SEQ ID NO: 6), and QERGDSLA (SEQ ID NO: 10) (protein)
chain: QAMPPEELNKLLANAKELTNILKYHIGDEILVSGGIGALVRLKSLQGDKLEVSSKNNVVSVNKEPVAETDIMEFGPQGIAGVDGQERGDSLAGLE
modifications: MFK24
In the case of B2, in the experiment with MMP1, the “cleavage through treatment with MMP-1” value was “concentration-dependently cleaved”. Further, the “cleavage in FLS culture (anti-histidine vs anti-βig-h3)” value in experiment [1] was “cleaved by MMP-1 secreted from a Synovial membrane cell”. Besides, the “number of transcripts of inflammatory mediators compared to arthritis control group” value in experiment [2] is listed as “significantly reduced”. Further, the “efficacy on ICAM-1 and RANKL expression at low dose” value with ICAM-1 and RANKL (0.1 mg/kg) is listed as “the high efficacy was maintained”. In addition, the “expression of ICAM-1 and RANKL in the inflammatory region” value in the experiment with ICAM-1 and RANKL (according to doses, FIG. 22) is reported as “reduced”.
